The results in this text go back to PMC9489729 (2022).

The target in experiment [1] is T1, C-terminally His-tagged RavA (E. coli, UniProt P31473 1-498). The experiment in a line: BLI; + ADP, pH 7.5. (In BLI a coated tip is dipped into the sample, and binding shifts an interference pattern.)
The target in experiment [2] is T1, C-terminally His-tagged RavA. The experiment in a line: BLI; + ATP, KD1 (2:1 heterogeneous ligand model), pH 7.5.
Experiment [3] shares this target. The experiment in a line: BLI; no nucleotide, pH 7.5.
The target is the same in experiment [4]. The experiment in a line: BLI; + ATP, KD2 second site (2:1 heterogeneous ligand model), pH 7.5.

As a reminder, the Kd is the concentration at which binding is half-saturated.

T1 sequence (P31473 whole entry): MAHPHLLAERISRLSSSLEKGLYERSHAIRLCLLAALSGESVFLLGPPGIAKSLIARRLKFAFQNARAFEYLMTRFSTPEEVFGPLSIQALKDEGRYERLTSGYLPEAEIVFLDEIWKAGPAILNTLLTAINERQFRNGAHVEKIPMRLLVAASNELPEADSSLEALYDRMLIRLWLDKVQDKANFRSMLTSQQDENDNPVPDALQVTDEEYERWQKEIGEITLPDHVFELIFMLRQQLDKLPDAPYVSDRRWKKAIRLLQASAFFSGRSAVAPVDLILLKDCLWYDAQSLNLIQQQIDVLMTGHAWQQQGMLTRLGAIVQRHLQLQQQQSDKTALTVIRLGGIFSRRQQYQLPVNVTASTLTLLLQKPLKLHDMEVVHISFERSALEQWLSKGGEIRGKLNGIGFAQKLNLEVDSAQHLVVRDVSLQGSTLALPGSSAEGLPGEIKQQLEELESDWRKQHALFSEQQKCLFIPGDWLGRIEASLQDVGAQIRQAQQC

B1: His-NTV-AviTag (domain or fragment)
chain: MLTLDTLNVMLAVSEEGLIEEMIIALLASPQLAVFFEKFPRLKAAITDDVPRWREALRSRLKDARVPPELTEEVMCYQQSQLLSTPQFIVQLPQILDLLHRLNSPWAEQARQLVDANSTITSALHTLFLQRWRLSLIVQATTLNQQLLEEEREQLLSEVQERMTLSGQLEPILADNNTAAGRLWDMSAGQLKRGDYQLIVKYGEFLNEQPELKRLAEQLGRSREAKSIPRNDAQMETFRTMVREPATVPEQVDGLQQSDDILRLLPPELATLGITELEYEFYRRLVEKQLLTYRLHGESWREKVIERPVVHKDYDEQPR
modifications: biotinylated for the BLI binding studies (50 μM D-biotin added to the LB medium during expression)
Take B1: the Kd in experiment [1] is 12.4 µM; in experiment [2], 13.1 µM; in experiment [3], 33.3 µM; in experiment [4], 4.8 µM.
